We go through two molecules from patent US20260053892A1, “Induction and Expansion of Regulatory T Cells” (Board of Regents of the University of Nebraska, priority 2022, published 2026).

The conditions of series [1]: 3 or 6 μg/kg/day, cited from earlier work.
Another series deals with Tregs. Nature of the series: Treg profiles by flow cytometry in blood, lymph nodes and spleen of treated mice. The format is in vivo, C57BL/6 male mice. Here is the method: C57BL/6 male mice (5-6 weeks old) were purchased from Jackson Laboratories (Bar Harbor, ME). […] Following a period of acclimation, mice were injected intraperitoneally (i.p.) with daily GM-CSF (Group 4) (Days 0-4). […] On Day 10, the mice were sacrificed, blood was collected, and spleen and lymph nodes were harvested.
Following treatment, whole blood, lymph nodes and spleens were collected to determine T-cell profiles via flow cytometric analysis. Peripheral blood, lymph nodes, and splenocytes were fluorescently labeled using antibodies against cell surface antigens including CD3, CD4, CD25, CD8, CD19, CD127, ICOS, GITR, CD39, CD62L, CD44, GITR, and CTLA-4, and for the intracellular markers FoxP3 and STAT5. Whole blood, lymph nodes, and splenocytes were labeled with PerCP Cyanine 5.5-anti-CD3 (eBioscience/Thermo Fisher Scientific, Waltham, MA), APC-anti-CD19 (eBiosciences), PE-anti-CD25 (eBiosciences), PE-cyanine7-anti-CD4 (eBiosciences), PerCP-eFluor710-anti-CD39 (eBiosciences), Alexa Fluor™ 488-anti-CD278 (ICOS) (Biolegend, San Diego, CA), FITC-anti-CD127 (Biolegend), FITC-anti-CD44, Alexa Fluor™ 488-anti-CTLA-4, Alexa Flour™ 700-anti-GITR, FITC-anti-CD8, and PerCP Cyanine 5.5-anti-CD62L. Intracellular staining was performed following permeabilization for 45 minutes at 4° C. Cells were labeled with APC-anti-FoxP3 (eBioscience) or anti-STAT5-Pacific Blue. Samples were analyzed with an LSRII flow cytometer and FACSDiva™ Software (BD Biosciences, San Diego, CA).
All values are expressed as mean±SEM using ANOVA (mean±SEM, n=3). *=p≤0.05; **=p≤0.01; *** p≤0.001. Data were analyzed using GraphPad Prism 9.3.1 software (La Jolla, CA).
A general note: A flow cytometer gives signals particle by particle.

The conditions of series [2]: in vivo; cited from earlier work.

For the molecule “sargramostim: human recombinant GM-CSF (sargramostim, Leukine®)”, in series [1], the Treg numbers result was “increased” and the “Unified Parkinson's Disease Rating Scale (UPDRS) scores” value is recorded as “modestly improved”. Further, the Safety and tolerability result in series [1] (low doses) is “safe and well-tolerated”.

B1: granulocyte-macrophage colony-stimulating factor (protein, UniProt P01587 18-141, looked up)
Granulocyte-macrophage …: APTRSPITVTRPWKHVEAIKEALNLLDDMPVTLNEEVEVVSNEFSFKKLTCVQTRLKIFEQGLRGNFTKLKGALNMTASYYQTYCPPTPETDCETQVTTYADFIDSLKTFLTDIPFECKKPGQK
notes: granulocyte-macrophage colony-stimulating factor, immunomodulatory growth factor; 0.1 mg/kg i.p. in mice
On to B1, for which the “CD4+CD25+FOXP3+ Tregs” value was “did not induce” in the series with Tregs (blood, FIG. 4) and “did not induce” with Tregs (spleen, FIG. 3). Also, the “CD25+CD127− Tregs” value was “did not induce” in the series on Tregs (blood, FIG. 5) and “did not induce” with Tregs (spleen, FIG. 6). Besides, the “CD25+ICOS+ Tregs” value in the series on Tregs (blood, FIG. 7) is “did not significantly induce”; in the series with Tregs (spleen, FIG. 8), “did not significantly induce”. In addition, in the series with Tregs (lymph nodes, FIG. 2), the “CD4+CD25+ Tregs” value is “only a mild increase”. The “CD25+GITR+ Tregs” value in the series on Tregs (lymph nodes, FIG. 9) is reported as “did not induce”. Besides, the “CD25+CD39+ Tregs” value in the series on Tregs (spleen, FIG. 10) is “did not induce”. Moreover, in the series with Tregs (spleen, FIG. 11), the “CD25+CD62L− Tregs” value is listed as “did not significantly induce”. Moreover, the half-life result in series [2] is listed as “six”.
